From PMC10602362, “Interchangeability of class I and II fumarases in an obligate methanotroph Methylotuvimicrobium alcaliphilum 20Z” (PLOS ONE, 2023)

Experiments:
FumI (class I fumarase) [1] = target: T1, FumI (class I fumarase) (Methylotuvimicrobium alcaliphilum, UniProt G4T1T1); assay: spectrophotometric hydration assay at […] nm, Hill fit; assay type: biochemical; conditions: 50 mM Tris-HCl pH 8.5, optimal conditions, aerobic; Hill n = 1.4 ± 0.2; read-out: Class I fumarase / S0.5
T1 construct: gene fumA; full length, 507 residues, His6-tagged, pET22b(+), E. coli BL21(DE3); homodimer (130 kDa); aerobically purified, stabilised with iron-sulfur mixture; [4Fe-4S]

FumC (class II fumarase) [2] = target: T2, FumC (class II fumarase) (Methylotuvimicrobium alcaliphilum, UniProt G4SWR5); conditions: read-out: Class II fumarase (FumС) / Km(S0.5*); 50 mM Tris-HCl pH 8.0; text b40 prints 0.10 ± 0.001 mM
FumC (class II fumarase) [3] = target: T2, FumC (class II fumarase); assay: coupled assay with NADP-dependent malic enzyme at […] nm; assay type: biochemical; set-up: full length (gene 1404 bp), His6-tagged, pET22b(+), E. coli BL21(DE3); homotetramer (184 kDa); conditions: 1 mM fumarate, 50 mM Tris-HCl pH 8.0, coupling enzyme present
FumI (class I fumarase) [4] = target: T1, FumI (class I fumarase); assay: as above; assay type: biochemical; conditions: activator; 1 mM succinate, 1 mM fumarate, 50 mM Tris-HCl pH 8.5, 5 mM MgCl2; coupling enzyme present
purified protein [5] = substrate: O=C(O)C[C@H](O)C(=O)O; assay: purified protein
purified protein [6] = substrate: C/C(=C\C(=O)O)C(=O)O; assay: purified protein; assay type: biochemical, Methylotuvimicrobium alcaliphilum; conditions: 50 mM Tris-HCl pH 8.5, aerobic, Hill n = 1.4 ± 0.1, error in Table 1 printed ± 0.2
[7] = 50 mM Tris-HCl pH 8.5, Hill n = 2.1 ± 0.4
[8] = 50 mM Tris-HCl pH 8.5, aerobic, Hill n = 1.7 ± 0.1, error in text b33 ± 0.03

O=C(O)/C=C/C(=O)O [fumarate]
Km (FumI (class I fumarase) [1]): 280 ± 40 µM | Km (FumC (class II fumarase) [2]): 110 ± 4 µM

C=C(OP(=O)(O)O)C(=O)O [phosphoenolpyruvate]
% reduction of activity at 1 mM (FumC (class II fumarase) [3]; 1 mM phosphoenolpyruvate): 30%

O=C(O)CCC(=O)O [succinate]
fold activity at 1 mM (FumI (class I fumarase) [4]): ~ 1.5 fold

O=C(O)CC(O)(CC(=O)O)C(=O)O [citrate]
% reduction of activity at 1 mM (FumC (class II fumarase) [3]; 1 mM citrate): 50%

B1: FumC (class II fumarase) (Methylotuvimicrobium alcaliphilum 20Z) (protein)
chain: MTIGSSAGRIESDALGSIEVPADKYWGAQTQRSLHYFAIGDERLPRPLIRALGIVKRCAALSNIAQNKLDEKLGRAIVDAAQEVIDGALDEHFPLVIWQTGSGTQSNMNANEVIANRVNERLGGALGSKSPVHPNDHCNLSQSSNDVFPSAMHIAAVEQLQCLLIPSLQRLQKTLSDKSQAWADIIKIGRTHLQDATPLSLGQEFSGYATQVQLSIERLQDSLKRLYPLAQGGTAVGTGLNSSQGFAELFADEVAKFTGHPFTSAANKFEAMAAHDALVELSGVLNCSAVSLNKIANDIRLLSSGPRSGLGELILPANEPGSSIMPGKINPTQCEALTMVCTQVIGNHTTVTLAGAQGHLELNTFKPVMIYNVLQSIRLLGDAAHSFTEHCVAGIQPNAERIAELMEQSLMLVTALVPQIGYDKAAQIAKTAMQNGTTLREEAIAVGLVSAEQFDAIVRPERMIMPK
K0.5 (purified protein [5]; [7]): 0.14 ± 0.01 mM | kcat/Km (purified protein [5]; [7]): 1000 M⁻¹ s⁻¹

B2: FumI (class I fumarase) (Methylotuvimicrobium alcaliphilum 20Z) (protein)
chain: MTLIRQEDFIQSIFESLQYISYYHPQDFIEAMYRAYQNEQSSAAKDAIAQILINSRMCAEGHRPICQDTGIVVVFLKIGMNVQWDAQISITDMVNEGVRRAFMHPDNILRASILSDPAGKRINTRDNTPAVVYMEVVPGDRVEVEIAAKGGGSEAKSKFAMLNPSDSIVDWVMQTVPTMGAGWCPPGILGIGIGGTAEKAMLLAKQACMESVDIHELIARGPVNALEELRLELYEKVNALGIGAQGMGGLTTVLDIKIKDYPAHAANKPVAMIPNCAATRHIHFELDGSGPAELPVPCLEDWPKIAWEGGNSAKRVNLDTVTKDEIATWRPGETLLLSGTLLTGRDAAHKRIVEMLERGEALPEGVDFTNKFIYYVGPVDPVRDEVVGPAGPTTATRMDKFTEAMLAQTGLIGMIGKAERGPVAIEAIKKHRAVYLMAVGGAAYLVSKAIRKARVVAFEDLGMEAVHEFVIEDMPVTVAVDVDGESIHKSGPKQWQAKIGKIPVVSK
notes: full length, 507 residues, His6-tagged, pET22b(+), E. coli BL21(DE3); homodimer (130 kDa); aerobically purified, stabilised with iron-sulfur mixture; [4Fe-4S]
K0.5 (purified protein [5]; [8]): 0.55 ± 0.02 mM | kcat/Km (purified protein [5]; [8]): 180 M⁻¹ s⁻¹ | K0.5 (purified protein [6]): 0.24 ± 0.02 mM | kcat/Km (purified protein [6]): 750 M⁻¹ s⁻¹
